In publication PMC12501226:

Biological target: Recombinant SARS-CoV-1 spike protein 2P (residues 12-1193) (SARS-CoV-1) (UniProt P59594)
Experiment: SPR

Q: Which results are given for “ACE2 monomer (human extracellular ACE2 domain, residues 18-615, cut from ACE2-TEV-Fc) (from UniProt Q9BYF1 18-615) (domain or fragment)”?
A: Kd: 71 nM; koff: 0.0016 s⁻¹; kon: 170000 M⁻¹ s⁻¹
